This note sets out measurements from publication PMC4297517 (Journal of molecular biology, 2014).

The target in this test is ClpB_(E279A,E678A) (E. coli, UniProt P63284 1-857, E279A | E678A). Put plainly: fluorescence polarisation.

B1: DnaK_(py-N282A*) (natural protein)
chain: not shown
modifications: N-(1-pyrene)maleimide label (K106C introduced for labeling); degree of labeling between 0.1 and 0.5
For the molecule B1, the binding result is “binds”.

B2: DnaK_(py-Q57A*) (natural protein)
chain: not shown
modifications: N-(1-pyrene)maleimide label (K106C introduced for labeling); degree of labeling between 0.1 and 0.5
On to B2, for which the binding result was “binds”.
